Data: the supplement of paper PMC10598134
± gives the standard deviation.

Test: collision cross section of modified peptide (TIMS, N2, iRT-aligned); higher = larger / more extended gas-phase ion
Method: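 1/K0 was aligned run-wise to spiked iRT peptides and converted to CCS in N2 (Mason-Schamp). Values are the mean of 1-3 technical replicates for the most abundant feature at each charge state.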

[1] = charge state: 2, modification: HexNAc (ST)
[2] = charge state: 3, modification: HexNAc (ST)
[3] = charge state: 2, modification: Acetyl (K)
[4] = charge state: 2, modification: Biotin
[5] = charge state: 2, modification: Butyryl
[6] = charge state: 2, modification: Crotonyl
[7] = charge state: 2, modification: Dimethyl (K)
[8] = charge state: 3, modification: Dimethyl (K)
[9] = charge state: 2, modification: Formyl
[10] = charge state: 2, modification: Glutarylation
[11] = charge state: 3, modification: Glutarylation
[12] = charge state: 2, modification: GlyGly (K)
[13] = charge state: 3, modification: GlyGly (K)
[14] = charge state: 2, modification: Malonyl
[15] = charge state: 2, modification: Methyl (K)
[16] = charge state: 3, modification: Methyl (K)
[17] = charge state: 2, modification: Propionyl
[18] = charge state: 2, modification: Succinyl
[19] = charge state: 3, modification: Succinyl
[20] = charge state: 2, modification: Trimethyl (K)
[21] = charge state: 3, modification: Trimethyl (K)
[22] = charge state: 2, modification: hydroxyisobutyryl
[23] = charge state: 2, modification: Nitro (Y)

Work on “DFSLTSSSQTPGATK [_DFS(HexNAc (ST))LTSSSQTPGATK_]” yielded a collision cross section [1] of 426.98 ± 0.62 Å² and a collision cross section [2] of 516.25 Å².

Sequence DHLSDKESK [_DHLSDK(Acetyl (K))ESK_] has a collision cross section [3] of 350.98 ± 1.6 Å².

DHLSDKESK [_DHLSDK(Biotin)ESK_] gave a collision cross section [4] of 368.95 Å² and a collision cross section (charge state: 3, modification: Biotin) of 429.55 Å².

Work on DHLSDKESK [_DHLSDK(Butyryl)ESK_] yielded a collision cross section [5] of 355.58 ± 0.7 Å².

For DHLSDKESK [_DHLSDK(Crotonyl)ESK_], the collision cross section [6] was 361.16 ± 11 Å².

DHLSDKESK [_DHLSDK(Dimethyl (K))ESK_] showed a collision cross section [7] of 344.63 ± 1.5 Å² and a collision cross section [8] of 408.73 ± 0.56 Å².

DHLSDKESK [_DHLSDK(Formyl)ESK_] gave a collision cross section [9] of 345.83 ± 0.37 Å².

Work on DHLSDKESK [_DHLSDK(Gluratylation)ESK_] yielded a collision cross section [10] of 353.36 ± 0.63 Å² and a collision cross section [11] of 411.89 Å².

In the case of DHLSDKESK [_DHLSDK(GlyGly (K))ESK_], the collision cross section [12] is reported as 353.15 ± 0.53 Å² and the collision cross section [13] is reported as 411.26 Å².

With DHLSDKESK [_DHLSDK(Malonyl)ESK_] the collision cross section [14] was 349.37 ± 0.029 Å² and the collision cross section (charge state: 3, modification: Malonyl) was 411.48 Å².

Work on DHLSDKESK [_DHLSDK(Methyl (K))ESK_] yielded a collision cross section [15] of 345.4 ± 1.5 Å² and a collision cross section [16] of 413.72 ± 4.7 Å².

In the case of DHLSDKESK [_DHLSDK(Propionyl)ESK_], the collision cross section [17] is reported as 355.5 ± 0.95 Å².

Sequence DHLSDKESK [_DHLSDK(Succinyl)ESK_] has a collision cross section [18] of 350.32 ± 1.6 Å² and a collision cross section [19] of 416.05 ± 0.88 Å².

Work on DHLSDKESK [_DHLSDK(Trimethyl (K))ESK_] yielded a collision cross section [20] of 350.64 ± 1.1 Å² and a collision cross section [21] of 401.61 ± 0.025 Å².

Work on “DHLSDKESK [_DHLSDK(hydroxyisobutyryl)ESK_]” yielded a collision cross section [22] of 357.61 ± 1.9 Å² and a collision cross section (charge state: 3, modification: hydroxyisobutyryl) of 415.53 ± 4.4 Å².

Sequence “DHSKPISNPSDNK [_DHS(HexNAc (ST))KPISNPSDNK_]” has a collision cross section [1] of 406.95 ± 0.13 Å² and a collision cross section [2] of 479.5 ± 0.17 Å².

“DKALPLEAEVAPVK [_DK(Acetyl (K))ALPLEAEVAPVK_]” gave a collision cross section [3] of 407.82 ± 5.1 Å².

Work on “DKALPLEAEVAPVK [_DK(Biotin)ALPLEAEVAPVK_]” yielded a collision cross section [4] of 435.06 Å².

“DKALPLEAEVAPVK [_DK(Butyryl)ALPLEAEVAPVK_]” showed a collision cross section [5] of 418.05 ± 4.9 Å².

In the case of “DKALPLEAEVAPVK [_DK(Crotonyl)ALPLEAEVAPVK_]”, the collision cross section [6] is reported as 411.34 ± 0.34 Å².

“DKALPLEAEVAPVK [_DK(Dimethyl (K))ALPLEAEVAPVK_]” gave a collision cross section [7] of 411.93 ± 0.85 Å² and a collision cross section [8] of 502.53 ± 1.6 Å².

“DKALPLEAEVAPVK [_DK(Formyl)ALPLEAEVAPVK_]” gave a collision cross section [9] of 412.02 ± 0.74 Å².

“DKALPLEAEVAPVK [_DK(Gluratylation)ALPLEAEVAPVK_]” gave a collision cross section [10] of 424.54 ± 0.97 Å².

With “DKALPLEAEVAPVK [_DK(GlyGly (K))ALPLEAEVAPVK_]” the collision cross section [12] was 422.58 ± 0.97 Å² and the collision cross section [13] was 511.69 ± 1.3 Å².

“DKALPLEAEVAPVK [_DK(Malonyl)ALPLEAEVAPVK_]” showed a collision cross section [14] of 414.83 ± 0.6 Å².

“DKALPLEAEVAPVK [_DK(Methyl (K))ALPLEAEVAPVK_]” showed a collision cross section [15] of 408.8 ± 1.9 Å² and a collision cross section [16] of 507.57 ± 2 Å².

Work on “DKALPLEAEVAPVK [_DK(Propionyl)ALPLEAEVAPVK_]” yielded a collision cross section [17] of 410.19 Å².

For “DKALPLEAEVAPVK [_DK(Succinyl)ALPLEAEVAPVK_]”, the collision cross section [18] was 421.55 ± 0.36 Å².

Work on “DKALPLEAEVAPVK [_DK(Trimethyl (K))ALPLEAEVAPVK_]” yielded a collision cross section [20] of 415.71 ± 1.1 Å² and a collision cross section [21] of 491.82 ± 2.4 Å².

“DKALPLEAEVAPVK [_DK(hydroxyisobutyryl)ALPLEAEVAPVK_]” gave a collision cross section [22] of 422.26 ± 0.83 Å².

Sequence DLATVYVDVLK [_DLATVY(Nitro (Y))VDVLK_] has a collision cross section [23] of 387.27 ± 0.74 Å².

With DLEEAEEYK [_DLEEAEEY(Nitro (Y))K_] the collision cross section [23] was 368.75 ± 2.1 Å².

With DLEEAEEYK [_DLEEAEEY(Phospho (Y))K_] the collision cross section (charge state: 2, modification: Phospho (Y)) was 369.49 ± 0.064 Å².

In the case of “DLGKFQVATDALK [_DLGK(Acetyl (K))FQVATDALK_]”, the collision cross section [3] is reported as 405.65 ± 0.97 Å².

For DLGKFQVATDALK [_DLGK(Biotin)FQVATDALK_], the collision cross section [4] was 425.47 ± 0.89 Å².

“DLGKFQVATDALK [_DLGK(Butyryl)FQVATDALK_]” showed a collision cross section [5] of 411.4 ± 0.85 Å².

In the case of “DLGKFQVATDALK [_DLGK(Crotonyl)FQVATDALK_]”, the collision cross section [6] is reported as 409.72 ± 0.55 Å².

With “DLGKFQVATDALK [_DLGK(Dimethyl (K))FQVATDALK_]” the collision cross section [7] was 400.58 ± 0.77 Å² and the collision cross section [8] was 478.59 ± 14 Å².

Work on DLGKFQVATDALK [_DLGK(Formyl)FQVATDALK_] yielded a collision cross section [9] of 403.92 ± 0.55 Å².

Work on “DLGKFQVATDALK [_DLGK(Gluratylation)FQVATDALK_]” yielded a collision cross section [10] of 414.3 ± 0.6 Å².

In the case of “DLGKFQVATDALK [_DLGK(GlyGly (K))FQVATDALK_]”, the collision cross section [12] is reported as 422.76 ± 0.97 Å² and the collision cross section [13] is reported as 498.2 ± 1.1 Å².

Work on “DLGKFQVATDALK [_DLGK(Malonyl)FQVATDALK_]” yielded a collision cross section [14] of 406.38 ± 0.61 Å².

“DLGKFQVATDALK [_DLGK(Methyl (K))FQVATDALK_]” showed a collision cross section [15] of 399.05 ± 1.1 Å² and a collision cross section [16] of 491.01 ± 3.2 Å².

“DLGKFQVATDALK [_DLGK(Propionyl)FQVATDALK_]” showed a collision cross section [17] of 407.94 Å².

Work on “DLGKFQVATDALK [_DLGK(Succinyl)FQVATDALK_]” yielded a collision cross section [18] of 409.86 ± 0.37 Å² and a collision cross section [19] of 478.58 Å².

“DLGKFQVATDALK [_DLGK(Trimethyl (K))FQVATDALK_]” gave a collision cross section [20] of 414.1 ± 0.6 Å² and a collision cross section [21] of 492.6 ± 1.8 Å².

Sequence “DLGKFQVATDALK [_DLGK(hydroxyisobutyryl)FQVATDALK_]” has a collision cross section [22] of 409.13 ± 0.55 Å².

“DLSTVEALQNLKNLK [_DLSTVEALQNLK(Acetyl (K))NLK_]” showed a collision cross section [3] of 475.96 ± 3.5 Å² and a collision cross section (charge state: 3, modification: Acetyl (K)) of 544.02 Å².

With “DLSTVEALQNLKNLK [_DLSTVEALQNLK(Butyryl)NLK_]” the collision cross section [5] was 484.29 ± 0.35 Å² and the collision cross section (charge state: 3, modification: Butyryl) was 550.2 Å².

In the case of “DLSTVEALQNLKNLK [_DLSTVEALQNLK(Crotonyl)NLK_]”, the collision cross section [6] is reported as 484.33 ± 1.1 Å².

“DLSTVEALQNLKNLK [_DLSTVEALQNLK(Dimethyl (K))NLK_]” showed a collision cross section [7] of 476.15 ± 1.7 Å² and a collision cross section [8] of 513.29 ± 0.57 Å².

“DLSTVEALQNLKNLK [_DLSTVEALQNLK(Formyl)NLK_]” gave a collision cross section [9] of 474.81 ± 0.7 Å².

“DLSTVEALQNLKNLK [_DLSTVEALQNLK(Gluratylation)NLK_]” showed a collision cross section [11] of 545.2 Å².

Work on “DLSTVEALQNLKNLK [_DLSTVEALQNLK(GlyGly (K))NLK_]” yielded a collision cross section [12] of 473.91 ± 4.8 Å² and a collision cross section [13] of 514.39 ± 5.7 Å².

Sequence “DLSTVEALQNLKNLK [_DLSTVEALQNLK(Malonyl)NLK_]” has a collision cross section [14] of 481.83 ± 1.5 Å².

Sequence “DLSTVEALQNLKNLK [_DLSTVEALQNLK(Methyl (K))NLK_]” has a collision cross section [15] of 475.78 ± 3.5 Å² and a collision cross section [16] of 545.72 ± 1.2 Å².

“DLSTVEALQNLKNLK [_DLSTVEALQNLK(Succinyl)NLK_]” showed a collision cross section [18] of 483.86 ± 0.78 Å² and a collision cross section [19] of 537.21 Å².

For “DLSTVEALQNLKNLK [_DLSTVEALQNLK(Trimethyl (K))NLK_]”, the collision cross section [20] was 478.82 ± 1.1 Å² and the collision cross section [21] was 501.71 ± 2.5 Å².
